This is an account of results in patent CN110028581A.

Assay [1] has as its target 微囊藻毒素抗体IgG in ascites (腹水).
For assay [2], the target named is 微囊藻毒素抗体Fab片段 (microcystin antibody Fab fragment).
For assay [3] the target is unchanged. The assay can be described thus: ic-ELISA: free MC-LR (1000 ng/mL dilution) against coated MC-LR-OVA for the Fab.

微囊藻毒素-LR (microcystin-LR) (peptide) registered a 抑制率 (inhibition rate) in assay [1] of 91%. Besides, in assay [2], the IC20 came to 0.15 ng/mL, the IC50 is 0.56 ng/mL and the IC80 is 2.1 ng/mL. The substance also returned a 抑制率 (inhibition rate) in assay [3] of 99%.

What is called IC20 is the concentration at which the effect reaches the 20% level. A high value points to weaker potency. The term IC50 denotes the midpoint of a concentration-inhibition curve. In general, IC80 refers to the concentration at which the effect reaches the 80% level. Low readings indicate greater potency, high ones weaker potency.
